This is an account of results in patent US11459578B2, “Carbon fixation systems in plants and algae” (NMC, INC., priority 2014, dated 2022).

In one data set the target is α-CAs found in mammals. The note with it: inhibitor not named; cited from earlier work.
For data set [1] the following is noted: cited from earlier work.
The next data set concerns Camelina. Kind of data set: Growth phenotypes and seed recovery of transgenic Camelina. The format is in vivo. From the text: (§1) Previously, reconstitution of a functional inorganic CCM in C3 plants to suppress photorespiration and enhance photosynthesis was proposed. In WO 2012/125737, it was hypothesized that expression of a minimum of three algal CCM proteins would be sufficient to elevate internal plastid CO2 concentrations high enough to suppress photorespiration. These three algal CCM genes included the Chlamydomonas plasma membrane-localized and ATP-dependent bicarbonate transporter, HLA3; the chloroplast envelope localized bicarbonate anion transporter, LCIA; and a chloroplast stromal-localized carbonic anhydrase (HCA-II) to accelerate conversion of bicarbonate into CO2. […] To test this hypothesis, we generated multiple independent transgenic Arabidopsis and Camelina plants expressing each CCM gene as a single gene construct, as well as a stacked 3-gene construct. The expression of each gene was controlled by the light-regulated Cab1 gene promoter.

Another data set has as its system Arabidopsis. Kind of data set: Growth phenotypes of transgenic Arabidopsis. The format is in vivo.
Excerpt: as §1
Finally, we also grew transgenics on ammonium with sucrose which would presumably provide additional ATP via respiration. We hypothesized that growth on nitrate or ammonium with sucrose would provide additional ATP that could potentially drive HLA3 activity.

For the molecule “hCAI: human α-carbonic anhydrase isoenzyme I”, on α-CAs found in mammals, the Ki is 250 nM. In data set [1], the Km was 4 mM.

In the case of “hCAXIII: human α-carbonic anhydrase isoenzyme XIII”, the Ki on α-CAs found in mammals is 16 nM. The Km in data set [1] was 13.8 mM.

B1: HLA3: Chlamydomonas plasma membrane-localized and ATP-dependent bicarbonate transporter, expressed in transgenic plants (protein, listed as Chlamydomonas reinhardtii)
chain: MLPGLGVILLVLPMQYYFGYKIVQIKLQNAKHVALRSAIMQEVLPAIKLVKYYAWEQFFENQISKVRREEIRLNFWNCVMKVINVACVFCVPPMTAFVIFTTYEFQRARLVSSVAFTTLSLFNILRFPLVVLPKALRAVSEANASLQRLEAYLLEEVPSGTAAVKTPKNAPPGAVIENGVFHHPSNPNWHLHVPKFEVKPGQVVAVVGRIAAGKSSLVQAILGNMVKEHGSFNVGGRISYVPQNPWLQNLSLRDNVLFGEQFDENKYTDVIESCALTLDLQILSNGDQSKAGIRGVNFSGGQRQRVNLARCAYADADLVLLDNALSAVDHHTAHHIFDKCIKGLFSDKAVVLVTHQIEFMPRCDNVAIMDEGRCLYFGKWNEEAQHLLGKLLPITHLLHAAGSQEAPPAPKKKAEDKAGPQKSQSLQLTLAPTSIGKPTEKPKDVQKLTAYQAALIYTWYGNLFLVGVCFFFFLAAQCSRQISDFWVRWWVNDEYKKFPVKGEQDSAATTFYCLIYLLLVGLFYIFMIFRGATFLWWVLKSSETIRRKALHNVLNAPMGFFLVTPVGDLLLNFTKDQDIMDENLPDAVHFMGIYGLILLATTITVSVTINFFAAFTGALIIMTLIMLSIYLPAATALKKARAVSGGMLVGLVAEVLEGLGVVQAFNKQEYFIEEAARRTNITNSAVFNAEALNLWLAFWCDFIGACLVGVVSAFAVGMAKDLGGATVGLAFSNIIQMLVFYTWVVRFISESISLFNSVEGMAYLADYVPHDGVFYDQRQKDGVAKQIVLPDGNIVPAASKVQVVVDDAALARWPATGNIRFEDVWMQYRLDAPWALKGVTFKINDGEKVGAVGRTGSGKSTTLLALYRMFELGKGRILVDGVDIATLSLKRLRTGLSIIPQEPVMFTGTVRSNLDPFGEFKDDAILWEVLKKVGLEDQAQHAGGLDGQVDGTGGKAWSLGQMQLVCLARAALRAVPILCLDEATAAMDPHTEAIVQQTIKKVFDDRTTITIAHRLDTIIESDKIIVMEQGSLMEYESPSKLLANRDSMFSKLVDKTGPAAAAALRKMAEDFWSTRSAQGRNQ
Take B1: in the data set with Camelina, the “growth phenotype / viability relative to WT” value is recorded as “no viable seeds were recovered”. Moreover, the “growth phenotype relative to WT” value in the data set with Arabidopsis is “reduced growth phenotypes”. In addition, in the data set with Arabidopsis (ammonium), the “growth in the presence of ammonium” value is on record as “none of the Arabidopsis HLA3 transgenics (4 independent lines) grew”. Besides, the “growth on ammonium with sucrose” value with Arabidopsis (ammonium plus sucrose) is “rescued”. The growth on nitrate result with Arabidopsis (nitrate) is “survived”.

B2: hCAXV: α-carbonic anhydrase isoenzyme XV (protein, UniProt Q99N23 19-324, looked up)
Carbonic anhydrase 15: VDSSGTWCYDSQDPKCGPAHWKELAPACGGPTQSPINIDLRLVQRDYTLKPFIFQGYDSAPQDPWVLENDGHTVLLRVNSCQQNCPAIRGAGLPSPEYRLLQLHFHWGSPGHQGSEHSLDEKHGSMEMHMVHMNTKYQSMEDARSQPDGFAILAVLLVEEDRDNTNFSAIVSGLKNLSSPGVAVNLTSTFALASLLPSALRLLRYYRYSGSLTTPGCEPAVLWTVFENTVPIGHAQVVQFQAVLQTGPPGLHPRPLTSNFRPQQPLGGRRISASPEASVRSSVSTLPCLHLALVGLGVGLRLWQGP
In the case of B2, the Ki at α-CAs found in mammals is 72 nM. Moreover, in data set [1], the Km is 14.2 mM.

B3: hCAXII: human α-carbonic anhydrase isoenzyme XII (protein, UniProt O43570 25-354, looked up)
Carbonic anhydrase 12: APVNGSKWTYFGPDGENSWSKKYPSCGGLLQSPIDLHSDILQYDASLTPLEFQGYNLSANKQFLLTNNGHSVKLNLPSDMHIQGLQSRYSATQLHLHWGNPNDPHGSEHTVSGQHFAAELHIVHYNSDLYPDASTASNKSEGLAVLAVLIEMGSFNPSYDKIFSHLQHVKYKGQEAFVPGFNIEELLPERTAEYYRYRGSLTTPPCNPTVLWTVFRNPVQISQEQLLALETALYCTHMDDPSPREMINNFRQVQKFDERLVYTSFSQVQVCTAAGLSLGIILSLALAGILGICIVVVVSIWLFRRKSIKKGDNKGVIYKPATKMETEAHA
As to B3, the inhibition constant Ki on α-CAs found in mammals was 5.7 nM. Also, the Km in data set [1] is 12 mM.

B4: hCAXIV: human α-carbonic anhydrase isoenzyme XIV (protein, UniProt Q9ULX7 16-337, looked up)
Carbonic anhydrase 14: ADGGQHWTYEGPHGQDHWPASYPECGNNAQSPIDIQTDSVTFDPDLPALQPHGYDQPGTEPLDLHNNGHTVQLSLPSTLYLGGLPRKYVAAQLHLHWGQKGSPGGSEHQINSEATFAELHIVHYDSDSYDSLSEAAERPQGLAVLGILIEVGETKNIAYEHILSHLHEVRHKDQKTSVPPFNLRELLPKQLGQYFRYNGSLTTPPCYQSVLWTVFYRRSQISMEQLEKLQGTLFSTEEEPSKLLVQNYRALQPLNQRMVFASFIQAGSSYTTGEMLSLGVGILVGCLCLLLAVYFIARKIRKKRLENRKSVVFTSAQATTEA
Consider B4, for which the Ki at α-CAs found in mammals was 41 nM. Moreover, the Km in data set [1] was 7.9 mM.

B5: hCAVB: human α-carbonic anhydrase isoenzyme VB (protein, UniProt Q9Y2D0 34-317, looked up)
Carbonic anhydrase 5B, …: CSLYTCTYKTRNRALHPLWESVDLVPGGDRQSPINIRWRDSVYDPGLKPLTISYDPATCLHVWNNGYSFLVEFEDSTDKSVIKGGPLEHNYRLKQFHFHWGAIDAWGSEHTVDSKCFPAELHLVHWNAVRFENFEDAALEENGLAVIGVFLKLGKHHKELQKLVDTLPSIKHKDALVEFGSFDPSCLMPTCPDYWTYSGSLTTPPLSESVTWIIKKQPVEVDHDQLEQFRTLLFTSEGEKEKRMVDNFRPLQPLMNRTVRSSFRHDYVLNVQAKPKPATSQATP
Regarding B5, the Ki on α-CAs found in mammals is 54 nM. The Km in data set [1] was 9.7 mM.

B6: hCAIII: human α-carbonic anhydrase isoenzyme III (protein, UniProt P07451 2-260, looked up)
Carbonic anhydrase 3: AKEWGYASHNGPDHWHELFPNAKGENQSPVELHTKDIRHDPSLQPWSVSYDGGSAKTILNNGKTCRVVFDDTYDRSMLRGGPLPGPYRLRQFHLHWGSSDDHGSEHTVDGVKYAAELHLVHWNPKYNTFKEALKQRDGIAVIGIFLKIGHENGEFQIFLDALDKIKTKGKEAPFTKFDPSCLFPACRDYWTYQGSFTTPPCEECIVWLLLKEPMTVSSDQMAKLRSLLSSAENEPPVPLVSNWRPPQPINNRVVRASFK
B6: the Ki at α-CAs found in mammals is 200000 nM. Further, in data set [1], the Km is 33.3 mM.

B7: hCAVA: human α-carbonic anhydrase isoenzyme VA (protein, UniProt P35218 39-305, looked up)
Carbonic anhydrase 5A, …: CAWQTSNNTLHPLWTVPVSVPGGTRQSPINIQWRDSVYDPQLKPLRVSYEAASCLYIWNTGYLFQVEFDDATEASGISGGPLENHYRLKQFHFHWGAVNEGGSEHTVDGHAYPAELHLVHWNSVKYQNYKEAVVGENGLAVIGVFLKLGAHHQTLQRLVDILPEIKHKDARAAMRPFDPSTLLPTCWDYWTYAGSLTTPPLTESVTWIIQKEPVEVAPSQLSAFRTLLFSALGEEEKMMVNNYRPLQPLMNRKVWASFQATNEGTRS
For the molecule B7, the Ki at α-CAs found in mammals is 63 nM. In data set [1], the Km is 10 mM.

B8: hCAIV: human α-carbonic anhydrase isoenzyme IV (protein, UniProt P22748 19-284, looked up)
Carbonic anhydrase 4: AESHWCYEVQAESSNYPCLVPVKWGGNCQKDRQSPINIVTTKAKVDKKLGRFFFSGYDKKQTWTVQNNGHSVMMLLENKASISGGGLPAPYQAKQLHLHWSDLPYKGSEHSLDGEHFAMEMHIVHEKEKGTSRNVKEAQDPEDEIAVLAFLVEAGTQVNEGFQPLVEALSNIPKPEMSTTMAESSLLDLLPKEEKLRHYFRYLGSLTTPTCDEKVVWTVFREPIQLHREQILAFSQKLYYDKEQTVSMKDNVRPLQQLGQRTVIKS
Regarding B8, the Ki at α-CAs found in mammals is 74 nM. The Km in data set [1] was 21.5 mM.

B9: hCAVI: human α-carbonic anhydrase isoenzyme VI (protein, UniProt P23280 18-308, looked up)
Carbonic anhydrase 6: QHVSDWTYSEGALDEAHWPQHYPACGGQRQSPINLQRTKVRYNPSLKGLNMTGYETQAGEFPMVNNGHTVQISLPSTMRMTVADGTVYIAQQMHFHWGGASSEISGSEHTVDGIRHVIEIHIVHYNSKYKSYDIAQDAPDGLAVLAAFVEVKNYPENTYYSNFISHLANIKYPGQRTTLTGLDVQDMLPRNLQHYYTYHGSLTTPPCTENVHWFVLADFVKLSRTQVWKLENSLLDHRNKTIHNDYRRTQPLNHRVVESNFPNQEYTLGSEFQFYLHKIEEILDYLRRALN
B9: on α-CAs found in mammals, the Ki is 11 nM. The Km in data set [1] is 6.9 mM.

B10: hCAVII: human α-carbonic anhydrase isoenzyme VII (protein, UniProt P43166 1-264, looked up)
Carbonic anhydrase 7: MTGHHGWGYGQDDGPSHWHKLYPIAQGDRQSPINIISSQAVYSPSLQPLELSYEACMSLSITNNGHSVQVDFNDSDDRTVVTGGPLEGPYRLKQFHFHWGKKHDVGSEHTVDGKSFPSELHLVHWNAKKYSTFGEAASAPDGLAVVGVFLETGDEHPSMNRLTDALYMVRFKGTKAQFSCFNPKCLLPASRHYWTYPGSLTTPPLSESVTWIVLREPICISERQMGKFRSLLFTSEDDERIHMVNNFRPPQPLKGRVVKASFRA
Consider B10, for which, at α-CAs found in mammals, the Ki is 2.5 nM. Besides, the Km in data set [1] was 11.4 mM.

One may read the Ki as a measure of affinity in units of concentration, obtained from inhibition or displacement. In general, Km refers to the substrate concentration at which the rate is half of its maximum.
